{"source": "the supplement of paper PMC9170038", "test_system": "MS2 coat protein", "experiment": "apparent KD of MS2 coat protein; designed switch direction (-1 OFF switch, 1 ON switch): 1; higher = weaker reporter binding", "in_short": "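Apparent KD, taken as the median over clusters for each design, was obtained by curve-fitting normalised cluster fluorescence. Designed RNA switches had been transcribed on Illumina chips by stalled E. coli RNA polymerase and titrated with SNAP-549-labelled MS2 coat protein, doubling from 0.7 or 1.5 nM to 3 µM.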", "key": {"[1]": {"conditions": "Eterna round: R95, input ligand: FMN 200 uM"}, "[2]": {"conditions": "Eterna round: R95, input ligand: microRNA oligo, concentration not stated"}, "[3]": {"conditions": "Eterna round: R95, input ligand: none"}, "[4]": {"conditions": "input ligand: microRNA oligo, concentration not stated"}}, "data": [{"sequence": "GGAGCCGGCACUGAGGAUAUUCAUAUUAAAACAUGAGGAUCACCCAUGUGGGCCAGAAGGCCUUGGGAGAAGGCAGGUCGGCCCG [Bibimoar - 4] (puzzle: Same State 2)", "values": [{"measurement": "apparent KD of MS2 coat protein", "setting": "[1]", "value": 20.2, "unit": "nM"}, {"measurement": "apparent KD of MS2 coat protein", "setting": "[2]", "value": 140, "unit": "nM"}, {"measurement": "apparent KD of MS2 coat protein", "setting": "[3]", "value": 183, "unit": "nM"}]}, {"sequence": "GGAGCCGGCCUAGGAUAUUUCAUUAAAAUACAUGAGGAUCACCCAUGUAGGCCAGAAGGCCUUGGGAAGAAGGAGGUCGGCUCC [Loop Effect - U24,U29] (Eterna round: R96, puzzle: Same State NG 2)", "values": [{"measurement": "apparent KD of MS2 coat protein", "setting": "input ligand: FMN 200 uM", "value": 9.56, "unit": "nM"}, {"measurement": "apparent KD of MS2 coat protein", "setting": "[4]", "value": 17.6, "unit": "nM"}, {"measurement": "apparent KD of MS2 coat protein", "setting": "input ligand: none", "value": 23.1, "unit": "nM"}]}, {"sequence": "GGAGCCGGCCUAGGAUAUUUCAUUUUAAAACAUGAGGAUCACCCAUGUAGGCCAGAAGGCCUUGGGAAGAAGGAGGUCGGCUCC [Loop Effect - U24,U25,U26] (Eterna round: R96, puzzle: Same State NG 2)", "values": [{"measurement": "apparent KD of MS2 coat protein", "setting": "input ligand: FMN 200 uM", "value": 17.4, "unit": "nM"}, {"measurement": "apparent KD of MS2 coat protein", "setting": "[4]", "value": 33.2, "unit": "nM"}, {"measurement": "apparent KD of MS2 coat protein", "setting": "input ligand: none", "value": 69.3, "unit": "nM"}]}, {"sequence": "GGAGGACAUGAGGAUCACCCAUGUGGAUGAACGCUAGGAUAUGCGUGCAGGAAGAGUGGAGCAGAAGGAGUGGGAU [JR_SS1_Sub047] (puzzle: Same State 1)", "values": [{"measurement": "apparent KD of MS2 coat protein", "setting": "[2]", "value": 19.1, "unit": "nM"}]}, {"sequence": "GGCCUCUGUCAAGGAUAUGCUACCGUUUCGGUAGCAGAAGGUGAUCACAUGCGGUUCGCCCAUGUUUAGGCCAACAGGCCCGCC (Eterna round: R96, puzzle: Same State NG 1)", "values": [{"measurement": "apparent KD of MS2 coat protein", "setting": "input ligand: FMN 200 uM", "value": 25.1, "unit": "nM"}, {"measurement": "apparent KD of MS2 coat protein", "setting": "[4]", "value": 5.14, "unit": "nM"}, {"measurement": "apparent KD of MS2 coat protein", "setting": "input ligand: none", "value": 6.87, "unit": "nM"}]}, {"sequence": "GGCCUGAGUGAAGGAUAUGCUACCGUUUCGGUAGCAGAAGGUCAUCACAUGAGGAUGACCCAUGUUUACGCGAACACGCGCGCC (Eterna round: R96, puzzle: Same State NG 1)", "values": [{"measurement": "apparent KD of MS2 coat protein", "setting": "input ligand: FMN 200 uM", "value": 45.9, "unit": "nM"}, {"measurement": "apparent KD of MS2 coat protein", "setting": "[4]", "value": 27.2, "unit": "nM"}, {"measurement": "apparent KD of MS2 coat protein", "setting": "input ligand: none", "value": 28.2, "unit": "nM"}]}, {"sequence": "GGCCUGCCGCAAGGAUAUGAAGCUUUCGCUCCGUCAGAAGGUGCACAUGAGGAUCACCCAUGUAUGCAGGCCAAGAAAUAAACC [Tisoenat] (Eterna round: R96, puzzle: Same State NG 1)", "values": [{"measurement": "apparent KD of MS2 coat protein", "setting": "input ligand: FMN 200 uM", "value": 13.2, "unit": "nM"}, {"measurement": "apparent KD of MS2 coat protein", "setting": "[4]", "value": 25.9, "unit": "nM"}, {"measurement": "apparent KD of MS2 coat protein", "setting": "input ligand: none", "value": 37.1, "unit": "nM"}]}, {"sequence": "GGCUAUCGCAUUCGAUAGCUUAAGCAUGUACAUGAGGAUCACCCAUGUCAUGUACAGGCUUUUUGCUCGUACUUAUA (puzzle: Sensor for hsa-mir-208a)", "values": [{"measurement": "apparent KD of MS2 coat protein", "setting": "[1]", "value": 286, "unit": "nM"}, {"measurement": "apparent KD of MS2 coat protein", "setting": "[2]", "value": 14.9, "unit": "nM"}, {"measurement": "apparent KD of MS2 coat protein", "setting": "[3]", "value": 366, "unit": "nM"}]}, {"sequence": "GGCUAUCGCGUACGAUAGCUUAAGCAUGUACAUGAGGAUCACCCAUGUCAUGUACAAGCUUUUUGCUCGGCUUAUUG (puzzle: Sensor for hsa-mir-208a)", "values": [{"measurement": "apparent KD of MS2 coat protein", "setting": "[1]", "value": 119, "unit": "nM"}, {"measurement": "apparent KD of MS2 coat protein", "setting": "[2]", "value": 14.3, "unit": "nM"}, {"measurement": "apparent KD of MS2 coat protein", "setting": "[3]", "value": 132, "unit": "nM"}]}, {"sequence": "GGCUAUCGCGUACGAUAGCUUAGGCAUGUACAUGAGGAUCACCCAUGUCAUGUACAGGCUUUUUGCUCGUCUUAUUG [JL-shm-2.36 JL mod] (puzzle: Sensor for hsa-mir-208a)", "values": [{"measurement": "apparent KD of MS2 coat protein", "setting": "[1]", "value": 179, "unit": "nM"}, {"measurement": "apparent KD of MS2 coat protein", "setting": "[2]", "value": 16.7, "unit": "nM"}, {"measurement": "apparent KD of MS2 coat protein", "setting": "[3]", "value": 210, "unit": "nM"}]}, {"sequence": "GGGAAGAGGGACAAGGAUAUGUCAGGAGAGACAUGAGGAUCACCCAUGUGGAGGUUGGAGCAGAGACAGAAGGUGUACGGAGAGA [JR_SS2_Sub010] (puzzle: Same State 2)", "values": [{"measurement": "apparent KD of MS2 coat protein", "setting": "[1]", "value": 108, "unit": "nM"}, {"measurement": "apparent KD of MS2 coat protein", "setting": "[2]", "value": 118, "unit": "nM"}, {"measurement": "apparent KD of MS2 coat protein", "setting": "[3]", "value": 145, "unit": "nM"}]}, {"sequence": "GGGCCAGCUUUUGCUGGGCCUUCGCUUGCACAUGAGGAUCACCCAUGUCGUGUACACGCUUCCUGCCCGUCUUGUUU [Photon Torp-19] (puzzle: Sensor for hsa-mir-208a)", "values": [{"measurement": "apparent KD of MS2 coat protein", "setting": "[1]", "value": 24, "unit": "nM"}, {"measurement": "apparent KD of MS2 coat protein", "setting": "[2]", "value": 15.3, "unit": "nM"}, {"measurement": "apparent KD of MS2 coat protein", "setting": "[3]", "value": 24.6, "unit": "nM"}]}, {"sequence": "GGUAAGAAUUAAGGAUAUUGAAUACAUAUGUUUAACAUGAGGAUCACCCAUGUGGGUUGCGGUGUCGAGAAGGUAAAAUAAUAG [Mat - same State NG 2 - JL mod - D101] (Eterna round: R96, puzzle: Same State NG 2)", "values": [{"measurement": "apparent KD of MS2 coat protein", "setting": "input ligand: FMN 200 uM", "value": 269, "unit": "nM"}, {"measurement": "apparent KD of MS2 coat protein", "setting": "[4]", "value": 166, "unit": "nM"}, {"measurement": "apparent KD of MS2 coat protein", "setting": "input ligand: none", "value": 311, "unit": "nM"}]}]}
